Laboratory results as given in patent US20020165381A1, “Human androgen receptor variants” (priority 2000, published 2002).

B1: AR42: androgen receptor variant according to the invention with the amino acid sequence indicated in Seq ID NO 2 (protein, listed as Homo sapiens)
chain: MILWLHSLETARDHVLPIDYYFPPQKTCLICGDEASGCHYGALTCGSCKVFFKRAAEGKQKYLCASRNDCTIDKFRRKNCPSCRLRKCYEAGMTLGARKLKKLGNLKLQEEGEASSTTSPTEETTQKLTVSHIEGYECQPIFLNVLEAIEPGVVCAGHDNNQPDSFAALLSSLNELGERQLVHVVKWAKALPGFRNLHVDDQMAVIQYSWMGLMVFAMGWRSFTNVNSRMLYFAPDLVFNEYRMHKSRMYSQCVRMRHLSQEFGWLQITPQEFLCMKALLLFSIIPVDGLKNQKFFDELRMNYIKELDRIIACKRKNPTSCSRRFYQLTKLLDSVQPIARELHQFTFDLLIKSHMVSVDFPEMMAEIISVQVPKILSGKVKPIYFHTQ
B2: AR32: androgen receptor variant according to the invention with the amino acid sequence indicated in Seq ID NO 4 (protein, listed as Homo sapiens)
chain: MILWLHSLETARDHVLPIDYYFPPQKTCLICGDEASGCHYGALTCGSCKVFFKRAAEGKQKYLCASRNDCTIDKFRRKNCPSCRLRKCYEAGMTLGARKLKKLGNLKLQEEGEASSTTSPTEETTQKLTVSHIEGYECQPIFLNVLEAIEPGVVCAGHDNNQPDSFAALLSSLNELGERQLVHVVKWAKALPGFRNLHVDDQMAVIQYSWMGLMVFAMGWRSFTNVNSRMLYFAPDLVFNEYRMHKSRMYSQCVRMRHLSQEFGWLQITPQEFLCMKALLLFSINCERAASVHF

How the values were obtained:
[1] = test system: MMTV promoter reporter plasmid in PC-3 cells; assay: Transactivation reporter assay: pSG5-AR42 co-transfixed with MMTV promoter reporter plasmid in PC-3 cells, treated with androgens; assay type: cell-based, human; settings: 100 ng pSG5-AR42 + 100 ng MMTV reporter plasmid, R1881, testosterone or DHT at 10^-7 M
Experimental: 100 ng of pSG5-AR42 was co-transfixed in PC-3 together with 100 ng of a reporter plasmid, which contains the MMTV promoter. These cells were then treated with various androgens (R1881: metribolone; T: testosterone; DHT: 5α-dihydrotestosterone) with a final concentration of 10^−7 M.
A vector for the transient expression of AR42 or AR32 is built in the pSG5 plasmid (Stratagene). This vector is transfixed in CV-1 or PC-3 cells. Parallel to this, a reporter plasmid that contains one or more copies of a steroid response element or a selective androgen response element, coupled to a luciferase reporter gene, is cotransfixed. To find specific effectors of AR42 or AR32, a high-throughput screening of substance banks is to be performed. Substances that trigger the activity of the reporter gene at a concentration of 10^−6 M or less are further processed. The search for receptor antagonists is performed in the presence of 10^−9 M androgen, e.g., R1881. Substances are selected that at least divide in half the androgen induction at a concentration of 10^−6 M or less.

AR [2] = target: T1, AR (Homo sapiens, UniProt P10275); assay: Transrepressing activity: pSG5-AR and different amounts of pSG5-AR42 co-transfixed in PC-3 cells with MMTV reporter plasmid; assay type: cell-based; parameters: expressed in transfected cells; settings: 10 ng pSG5-AR, different amounts of pSG5-AR42, 100 ng MMTV reporter plasmid, R1881 10^-9 M
T1 sequence (P10275 1-920): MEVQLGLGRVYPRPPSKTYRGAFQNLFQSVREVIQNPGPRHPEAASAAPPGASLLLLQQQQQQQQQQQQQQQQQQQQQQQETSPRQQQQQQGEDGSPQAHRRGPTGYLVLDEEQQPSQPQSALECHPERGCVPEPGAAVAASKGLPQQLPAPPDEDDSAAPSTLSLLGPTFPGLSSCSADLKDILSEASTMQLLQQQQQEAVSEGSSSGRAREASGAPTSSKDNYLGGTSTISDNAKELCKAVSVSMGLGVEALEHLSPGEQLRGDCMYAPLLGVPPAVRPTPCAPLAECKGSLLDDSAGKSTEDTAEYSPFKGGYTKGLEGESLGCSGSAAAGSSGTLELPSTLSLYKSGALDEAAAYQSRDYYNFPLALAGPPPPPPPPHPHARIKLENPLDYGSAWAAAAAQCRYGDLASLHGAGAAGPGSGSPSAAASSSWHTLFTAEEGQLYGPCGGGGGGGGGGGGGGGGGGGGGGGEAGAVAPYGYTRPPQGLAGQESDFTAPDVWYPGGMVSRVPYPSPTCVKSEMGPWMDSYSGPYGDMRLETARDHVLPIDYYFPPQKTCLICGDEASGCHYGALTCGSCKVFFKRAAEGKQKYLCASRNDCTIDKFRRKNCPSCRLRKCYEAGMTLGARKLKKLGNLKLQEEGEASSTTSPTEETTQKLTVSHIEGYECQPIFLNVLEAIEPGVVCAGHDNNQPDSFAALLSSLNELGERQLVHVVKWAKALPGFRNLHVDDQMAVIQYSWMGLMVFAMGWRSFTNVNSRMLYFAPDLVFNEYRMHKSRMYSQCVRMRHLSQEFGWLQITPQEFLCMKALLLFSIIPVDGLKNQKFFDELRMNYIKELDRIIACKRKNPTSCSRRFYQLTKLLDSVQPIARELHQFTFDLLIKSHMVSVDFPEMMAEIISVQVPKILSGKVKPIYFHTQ
Experimental: 10 ng of pSG5-AR and different amounts of pSG5-AR42 were co-transfixed in PC-3 cells. In addition, 100 ng of a reporter plasmid, which contains the MMTV promoter, was transfixed.
(§1) A vector for the transient expression of AR42, AR32 or AR is built in the pSG5 plasmid (Stratagene). A constant amount of pSG5-AR and varying amounts of pSG5-AR42 or pSG5-AR32 are transfixed in CV-1 cells. In the control, a pSGS plasmid, which contains an irrelevant cDNA of similar length, is cotransfixed with the pSG5-AR. In addition, a reporter plasmid, which contains one or more copies of a steroid-response element or a selective androgen-response element, coupled to a luciferase reporter gene, is cotransfixed. After treatment with an androgen, an increase in the reporter gene activity is measured.

AR [3] = target: T1, AR; assay: Transrepressing activity of AR42 and AR32 in CV-1 cells (luciferase reporter, Example 5); assay type: cell-based; parameters: expressed in transfected cells; host or cells: CV-1 cells; settings: constant amount of pSG5-AR, varying amounts of pSG5-AR42 or pSG5-AR32, after treatment with an androgen
Description: as §1

| Molecule | transactivating function (reporter gene activity) [1] | transrepressing activity (reporter gene activity of stimulated AR) (AR [2]) | transrepressing activity (reporter gene activity of stimulated AR) (AR [3]) |
| --- | --- | --- | --- |
| B1 | does not have any transactivating function | inhibited the transactivating effects of stimulated AR | inhibit these transactivating effects of stimulated AR |
| B2 | – | – | inhibit these transactivating effects of stimulated AR |
